Reference: PMC4570970

Substrate: CC(C)=CCC/C(C)=C/CC/C(C)=C/CO[P@@](=O)(O)OP(=O)(O)O
Test: purified protein
Details: Mg2+ active site

B1: 5-epi-aristolochene synthase (TEAS) (Nicotiana tabacum) (protein)
chain: MASAAVANYEEEIVRPVADFSPSLWGDQFLSFSIKNQVAEKYAKEIEALKEQTRNMLLATGMKLADTLNLIDTIERLGISYHFEKEIDDILDQIYNQNSNCNDLCTSALQFRLLRQHGFNISPEIFSKFQDENGKFKESLASDVLGLLNLYEASHVRTHADDILEDALAFSTIHLESAAPHLKSPLREQVTHALEQCLHKGVPRVETRFFISSIYDKEQSKNNVLLRFAKLDFNLLQMLHKQELAQVSRWWKDLDFVTTLPYARDRVVECYFWALGVYFEPQYSQARVMLVKTISMISIVDDTFDAYGTVKELEAYTDAIQRWDINEIDRLPDYMKISYKAILDLYKDYEKELSSAGRSHIVCHAIERMKEVVRNYNVESTWFIEGYTPPVSEYLSNALATTTYYYLATTSYLGMKSATEQDFEWLSKNPKILEASVIICRVIDDTATYEVEKSRGQIATGIECCMRDYGISTKEAMAKFQNMAETAWKDINEGLLRPTPVSTEFLTPILNLARIVEVTYIHNLDGYTHPEKVLKPHIINLLVDSIKI
Km: 4.47 µM
